Laboratory results reported in the DeepSol protein solubility set.

Test: soluble on expression in E. coli; label from the status in PepcDB or PDB records

Sequence | soluble on expression in E. coli
MAHHHHHHMSNPWNAKLVEELLFRQYEKGEDVSMLLPPPPALSVDQYLKEYEQSTKVLFAYVRNGPANALTPQNINNPRMYGGTPTKGSSSMQRTGNQGGATCATTSSSSACGVDSKAQMQRHPRGLDGSQSAAPSLPLTAGDAAAGQGSMAPPEHIRKRIEWPATVPTNSALKSNSRSRVANLTTKRVAAQERVDPDLIFMQNPEELPLHTIFAKYPKAVESIAALRGGSGDWREDTFTEEEEILYKRELRYSHMGPSQCGFFRSNLIQR | not soluble
MAHHHHHHMSRCGRKLDMSSGYWLPRRLLLVRHGESEANVDRALYSKVPDWKIPLTARGREQAFECGRRLRKIIKNEKLYVYYSPYTRTRQTLTEVRKSLLPSQVQGEREDERLREQEIGNFQPLDKMDEMWAERSEFGRSYYRFPDGESSVDVGDRVSKFFDSLFRERVELNYLSARKQMITGSSNDVGPASFTVPDDDDHNVVIISHGLLIRLFVGRWYSAPMEVFETMKNPPNCGIVVLERREAGRLVMTDTSKKLFGSDPLLEMMKFDGKDNVQLFRHLFAEGGYSFSAGEGTDR | soluble
MAHHHHHHMSTIYNAVDASTLNDRCRTDLLDTVAQLGRHCETLPKKAVTTADAPLPSCTFNTTVSRSQKEINCSNEAALDKYIEEKGATRWRTTQALASTYFKDHKPKFHGALRTQDCFRDTRDITQLSSKEKDFVHRYAEAKMKKSIPREESDDVAKKVATEAYTEAFRKFKGRDPTEKELLEVERLYFAYADDGAVGVVQKPHFHGPHMHVSICNRKYVTCPNQVYRASLPAVRNARSRFPGPIPVWTSTKNLHAVVSNDTYRPGVHNVSKFGETSSK | not soluble
MAHHHHHHMSWAALVKSIKPEEATNFTAKPRVTVFAVDPSQNDAERQLQNPQHETAEVKLPSFSKGLLILDANAIIKGMDNFVSTADALVTTPQVIAEIKDRASRELMERLPHKVTVLDPTPEAVAAVVACAERTGDFGAMSRTDIRLCALALECCKVGGFLGEPIEPRPPQVNPRNDDKVQVMTEEMGEDGSNDERAKSETAHAQGASSSAMPGWGDWSDEAKETDGEGGAGAAEEDDGEGEWITPENIQDVQSGTRGAGRAFEAGMACVTSDYAMQNTLMHLGVPIVGTNGIHIRELRLWMMRCTACFTLVVDTTRQFCPECGSGDTLRRVNYVVNDQGEKKLYINFRKRISTRGTIYNLPRPRGGTHGTNRNLVLREDQLAHVIRGTTSSKVKAHQVMQNDDGALATFGEAPKLKKKNLADPRAYSSYHRYNVNEKKKVRAAHRK | soluble
MAHHHHHHMTAKSPCLDILPFIFREEQISNRIQTFPTETMKKAYLELKGYFEQYKIYAEKLINFSGSMNDENQRKEKLIIKLRCEYYAVIFSQASKLLHEYINFRNRLILELAINVNGLINSIHPNIIQRLNEDEQKELQKYCENIRSERTRSKLQNKFTVCFLNDLIIEDLNYEGVQKDMKGRNVFYSAGLKVSVFEDKALDLQKCEWAKILRD | not soluble
MAHHHHHHMTFPSVQSSVHLYSNVVELAIRYTDLCAFCGRKAHEGENGSTKGDRAETSGSWHFHLARSKEPIAVSCLHAIMQRTNILGGRVNLFFTFERVPPFGGHKSRAVIQLASFHYSKNMRLCLNVAYLPQEEVRLKTVRAHVDSDCNVLEVACWRVFVFLGRST | not soluble
MAHHHHHHMTSQPHVTMSKNTGSVTEQHKRMSHTTGDNNEEEKHILAGRYKTKLCKNYVARGECPYDVRCMFAHGEDELRTSDDNIRDGLVTEEAIKDFQRQQNQAKRRAAFAAAREHNNHDHSHSHNHSHSHNHTVRPVPHGNVYEMEENVESNEVYRNRNRHHNLRLHPPQEPVSIPQPQQQQQQEQQFQLQSVVAQYYTHNPYVFDLIPAAARLFPVYQEVVEEGCWYEEEPVPAQEDYYFPSSDMMMPLVPSLVTQQYLPYPHQQCSKQLETVASASTYSCEEAMYGHSESSASSAYRSVARCTAAELPSNSDIPAMVMEP | not soluble
MAHHHHHHMVFYSFVLVMKPRQRRFTSQALREIGVAVYSNGGLIRSITNEGIMRPYSRFRDADNTPLTYARYIILQLDMGEEEMGKVDKIIREHQDVLMALKLNNLERPVGIRSGNKELQAAYFPLDTFTRLEEEINWSPQTSADIYTQLEMNWKEFSRTRWSSFLRN | not soluble
MAHHHHHHMVGLRTRNVIDPIHGGVGRVIGGKGVSIDRNDGSIISDNEGENDRNGGDIPKAEGEEGRDAQDKGNAKVVMPIDEANQSNIANICSCDFTERLNFIPQEKTKVVCNLNPHHGEEVKIWVNKEYEVKCFQNSRVYCPSKDNIVNNTDITTYSPKLKYNISDVVHRDREVKEYHLQIDKDASDILLFCSIKPKQVSELLEGEVKINLKREISEEYSIPDEHGIHACNFSKGNLDISPSAGFYYKNDRSVSCIYLVIPNKLFLIKLPKLDIVTNQLLPSLVNCLSEHSFINFNLKHVEEGDESISLHLSFGDFKRTFNLSCAFDLSEYVIEPCLLGKKGIVTFYFNA | not soluble
MAHHHHHHMVTFRCDCLHNEAEGALCRWKGKWHPANCTNTPVLLIGKGQPQGYFKLKLKVYAIFHGNGHRLHTLNCTDEDSSEDSLNATTCSDSDWRSITQQVPTEETVEQSAASEQGPSDTTKGSGSDDEETASSAPKSEGEEQEASGEGEETPKEDQQSPGEKRGTAGEKRGASGKKDGAGGEGLTRKEPEKGGATQGGKHTHPRGESSPEKGTVNDHQRDAAEDGTTTNGKQDADPGREEPVRGRDDTVAAGAGIVSNTGRIDRKPENKKGNNVRYGAIQNLLVAIVCFITG | not soluble
MAHHHHHHMWWTAARRRLYYPNQIFLSKDNRRINNSWLPRRLLLVRHGESEANVNREVYSNTPDWKIPLTALGREQAYDCGKRLRNIIQGEKLYIYYSPYARTRQTVSEIRRSFDESQIQGEREDERLREQEMGNYQPLQDMDATWAARNAFGRLYYRFPFGESGADVGDRVSGFFDSLLRESIGLTVPNMNECVVQGAREGLGALDLGPWSTGVDNVPGSSCACSVSTSQGGPVASSTGSESAPPSWTPSFHQATTSSAGLRRTIRRTSPHRPLPLSDFGEAETRGVPPLNDHCASAGEEQNVLIIAHGLLIRLFIGRWFRVPMEVFETMCNPPNCAIIVLERDDRLGRLVMTDMSKSLFGSDPLLQMMRFDGREDTHWYREKFLGIVDPTKAAEEAVVEDDDENHYSMSNAHNSGVGAPAPPPRQRKPSTSTATRASPSTSASASGTSASSAESADVSASTAEHAALAARDRATQPKCPPPCMDCTPNRDYMTFSRRR | not soluble
MAHHHHHHSLCPCPHSQAQGETDGEAEWHNAALDFTHAMSYGDYLKLDKVLDAQFPLSPDHNEMLFIIQHQTSELWMKLMLHELRAAREHVKSGKLGPALKMLARVSRIFDQLVHAWAVLATMTPTEYNTIRPYLGQSSGFQSYQYREIEFILGNKNATLLKPHAHRAELLAALEQALHTPSLYDEAIRLMAAQGLPVSQERLARDAAAGTCYEASVEAAWRQVYQAPERYWDLYQLAEKLIDLEDSFRQWRFRHVTTVERIIGFKPGTGGTEGVGYLRSMLDTILFPELWRLRSNEG | soluble
MAHHHHHHSLKEAEVLKYEAFTSSPGKGNPAGVVLQGDDYTEDEMQIIAERAGYSETSFIRKSESADLELRYFTPGHEMNLCGHATVASLYALCEKGMLESGKTYSIQTKAGILPVKISEKDGRIHITLEQASPQFKPFTGDRKKLADALGITDEDFHEDLPIVFGSTGIWTAIVPLKSLEASKKMVPDNKQFPEVLVDLPKASVHPFTFETVHPDSDLHGRHFSSPYSGTIEDPVTGTASGVMGAYMKHYGNAEQHKFIIEQGQEIGKDGKVEIEMNEAGGHVKVNMTGTAVYSETRILKIEG | not soluble
MAHHHHHHSLPIKIPDNLPAAKTLNEENIFFMDEDRAYHQDIRPLNIVIVNLMPTKIVTETQILRLIGNSPLQVNPTFIHTQTHKSQNTSKEHLIKFYETFEEIKNNKFDGMIVTGAPVETLSFENVDYWEELCRIFDWSVTNVTSTIHICWGAQAGLYHHYGIPKYELHEKLFGVFKHNLTERNIKLTRGFDDEFYAPHSRHTYVKREDIKKNPSLKILAESDEAGAYIVASENGKNIFVMGHAEYDGDTLNLEYIRDKNQGMNIKIPKNYFKDNDPEKGPMVTWRGHANLLFSNWLNYYVYQETPFELEG | soluble
MAHHHHHHVDDDDKMVSTTPAAGVLDTSVFIATESGRQLDEALIPDRVATTVVTLAELRVGVLAAATTDIRAQRLATLESVADMETLPVDDDAARMWARLRIHLAESGRRVRINDLWIAAVAASRALPVITQDDDFAALDGAASVEIIRV | soluble
MAHLVITIGCEYGAKGNQIGKKVAKDLGIKFYDRDTVDEIIKEVGIPKDIMEKVEEGITIAGKGAEGDVRGSFSKYADLTERAIHVQKTIIRKLSDRESCVIIGRSADYILKEHKPILRIFIYSPDEVRIENVMKSHNLSEDDAKLFITEKDKRYHKRHMALTGSNRGDRHNRDMLIDSSLLGVDGTAELIESLARKVVENESKTEAGGDK | not soluble
MAHSEEQAAVPCAFIRQNSGNSISLDFEPDTEYQFVEQLEERYKCAFCHSVLHNPHQTGCGHRFCQQCIRSLRELNSVPICPVDKEVIKPQEVFKDNCCKREVLNLHVYCKNAPGCNARIILGRFQDHLQHCSFQAVPCPNESCREAMLRKDVKEHLSAYCRFREEKCLYCKRDIVVTNLQDHEENSCPAYPVSCPNRCVQTIPRARVNEHLTVCPEAEQDCPFKHYGCTVKGKRGNLLEHERAALQDHMLLVLEKNYQLEQRISDLYQSLEQKESKIQQLAETVKKFEKELKQFTQMFGRNGTFLSNVQALTSHTDKSAWLEAQVRQLLQIVNQQPSRLDLRSLVDAVDSVKQRITQLEASDQRLVLLEGETSKHDAHINIHKAQLNKNEERFKQLEGACYSGKLIWKVTDYRVKKREAVEGHTVSVFSQPFYTSRCGYRLCARAYLNGDGSGKGTHLSLYFVVMRGEFDSLLQWPFRQRVTLMLLDQSGKKNHIVETFKADPNSSSFKRPDGEMNIASGCPRFVSHSTLENSKNTYIKDDTLFLKVAVDLTDLEDL | soluble
MAIFRDYSINPTEHDRTIGDRRRHRELVEKAIKDNLADIVSEESIIGESKSKKIKIPIRGLKEYKFLYGNNSSSVGSGTGNEKKGDIIGKEQMGNGSKGKGKGAGNSEGEDIYETEVTIEEVFSYLLEDLNLPNLDKKKYSEIVTDSSKKKAGYQKYGIRPRLAKKRTVIEKIKREQSRKRAIKELGKDDKVERLPFSEEDLRYHRIKEKPKKECNAAIMCVMDCSGSMDSTKKYLARSFFFILSKFIRMKYVNVEIAFISHSTVGREVTETEFFHKVESGGTYISSGLNTAMDIIKERFNPATWNIYGFYVSDGDNFTEDDERAIKSMRKFCEIANMIGYAEILPYSYSGTMKYKFDNYVKDKNFISSTIRNKEDLWPVLKKMLIKELKELEHHHHHH | soluble
MAIGKKVSKKTPLLLAADSHKNAAKMPCFLLQAHRIANTVIAGWHGQRKRGNGENFWQFRPYVEGESITRIDWRRSARDGHTYLREHEWEKTQTVWIWPDQSASMHYCSCFSQTSKDNYAIILALTLATLLARSGENIAIPTLMPPTMAPNVVERMALALVNRHTENPFPDFSTITRFSHVIIMSDFLDSPEKIIQNLTVLSAKQITVHLIEVADPAEEHFPYAGHTEFFDPETKEKRILGKAENSREHYCKLYQARRQELTNFCTRQGWTYHVSKTDRPLTEVILRLANKIGISPSHNRRSL | not soluble
MAIKNEIKNCLIMSVNPSYPLPLLCQYIPRYHPQMPTCPLFESKSIITPVFYFNCKRMDRSIDRRLCGHCHQSIGSEALVAMNRLWHPDHFTCSSCKRPIKQTFQAADNHAYCVQCFAQKYNPKCAGCMETLVDTCLLALDRHWHPRCFTCSSCNRPLPNGEFYLVDDKPYDLDCHWAKRLEKREHMERGER | not soluble
